Numbered stars: 1 amine (or outer) side, 2 acyl side, 3 side chain; on linkers, the order of the positions; unused ones are H or OH. Bridge positions count the residues as written; N and C are the ends. Side chains are listed from the residue outwards. Ends that are not written are not given here. * marks the point of attachment. C20 diacid = O=C(O)CCCCCCCCCCCCCCCCCCC(=O)*; γGlu = O=C(O)[C@H](CCC(=O)[*:2])N[*:1]
Legend:
Test in all cases: cell-based or functional assay
[1] = molecular target: T1, human calcitonin receptor (human, UniProt P30988 25-474)
T1 sequence (looked up): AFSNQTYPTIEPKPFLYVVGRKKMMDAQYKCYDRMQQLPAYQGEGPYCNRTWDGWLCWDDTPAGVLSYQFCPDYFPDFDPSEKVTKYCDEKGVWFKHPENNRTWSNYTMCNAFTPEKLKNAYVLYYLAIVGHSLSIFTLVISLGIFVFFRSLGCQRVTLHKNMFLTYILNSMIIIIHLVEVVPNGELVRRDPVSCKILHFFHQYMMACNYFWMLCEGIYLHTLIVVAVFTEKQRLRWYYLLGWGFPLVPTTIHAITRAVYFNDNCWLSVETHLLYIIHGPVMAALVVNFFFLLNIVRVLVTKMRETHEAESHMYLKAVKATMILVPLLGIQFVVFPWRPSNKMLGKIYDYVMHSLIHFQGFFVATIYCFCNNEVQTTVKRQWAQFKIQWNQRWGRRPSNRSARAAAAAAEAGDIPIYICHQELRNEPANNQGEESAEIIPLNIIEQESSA

[2] = molecular target: T2, human amylin 3(a) receptor (human calcitonin receptor co-expressed with RAMP-3) (human, UniProt P30988 25-474; O60896 24-148, limits assumed)
T2 sequence (looked up) 1: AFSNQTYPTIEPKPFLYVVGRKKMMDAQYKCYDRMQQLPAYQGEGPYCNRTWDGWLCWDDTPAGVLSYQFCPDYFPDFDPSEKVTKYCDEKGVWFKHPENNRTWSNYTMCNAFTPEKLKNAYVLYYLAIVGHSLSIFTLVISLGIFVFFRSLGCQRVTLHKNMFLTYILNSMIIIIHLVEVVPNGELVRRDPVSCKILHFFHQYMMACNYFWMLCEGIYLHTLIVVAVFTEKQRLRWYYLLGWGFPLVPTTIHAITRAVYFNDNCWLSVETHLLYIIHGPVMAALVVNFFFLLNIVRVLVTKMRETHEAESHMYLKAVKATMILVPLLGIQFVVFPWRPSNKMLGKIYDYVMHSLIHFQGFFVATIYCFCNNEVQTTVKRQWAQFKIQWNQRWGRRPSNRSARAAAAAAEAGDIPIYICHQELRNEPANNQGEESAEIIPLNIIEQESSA
T2 sequence (looked up) 2: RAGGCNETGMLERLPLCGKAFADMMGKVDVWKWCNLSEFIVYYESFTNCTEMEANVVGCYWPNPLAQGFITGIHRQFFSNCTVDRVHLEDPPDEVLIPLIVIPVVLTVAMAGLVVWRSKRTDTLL

[3] = molecular target: T3, human calcitonin receptor (human, UniProt P30988 25-474); remark: listed apart in the source
T3 sequence (looked up): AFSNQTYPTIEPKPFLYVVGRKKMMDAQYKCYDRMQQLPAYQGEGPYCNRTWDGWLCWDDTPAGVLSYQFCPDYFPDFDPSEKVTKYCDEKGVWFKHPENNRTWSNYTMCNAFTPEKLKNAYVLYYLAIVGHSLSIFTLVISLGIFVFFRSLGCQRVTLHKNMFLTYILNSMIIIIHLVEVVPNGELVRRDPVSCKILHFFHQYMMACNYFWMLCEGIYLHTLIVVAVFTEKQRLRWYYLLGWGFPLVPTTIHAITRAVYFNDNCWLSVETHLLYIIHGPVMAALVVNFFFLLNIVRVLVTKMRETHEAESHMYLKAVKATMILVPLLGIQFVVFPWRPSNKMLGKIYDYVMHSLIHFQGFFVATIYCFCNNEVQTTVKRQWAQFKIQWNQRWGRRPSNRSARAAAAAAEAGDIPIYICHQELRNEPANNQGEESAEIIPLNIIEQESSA

B1: N^α1-[(4S)-4-carboxy-4-(19-carboxynonadecanoylamino)butanoyl]-[Glu14,Arg17,Pro21,Pro27,His34]-h-amylin (peptide)
peptide: {C20 diacid-γGlu}-KCNTATCATQRLAEFLRHSSPNFGAIPSSTNVGHNTY-NH2
modifications: disulfide 2-7
SMILES: CC[C@H](C)[C@H](NC(=O)[C@H](C)NC(=O)CNC(=O)[C@H](Cc1ccccc1)NC(=O)[C@H](CC(N)=O)NC(=O)[C@@H]1CCCN1C(=O)[C@H](CO)NC(=O)[C@H](CO)NC(=O)[C@H](Cc1c[nH]cn1)NC(=O)[C@H](CCCNC(=N)N)NC(=O)[C@H](CC(C)C)NC(=O)[C@H](Cc1ccccc1)NC(=O)[C@H](CCC(=O)O)NC(=O)[C@H](C)NC(=O)[C@H](CC(C)C)NC(=O)[C@H](CCCNC(=N)N)NC(=O)[C@H](CCC(N)=O)NC(=O)[C@@H](NC(=O)[C@H](C)NC(=O)[C@@H]1CSSC[C@H](NC(=O)[C@H](CCCCN)NC(=O)CC[C@H](NC(=O)CCCCCCCCCCCCCCCCCCC(=O)O)C(=O)O)C(=O)N[C@@H](CC(N)=O)C(=O)N[C@@H]([C@@H](C)O)C(=O)N[C@@H](C)C(=O)N[C@@H]([C@@H](C)O)C(=O)N1)[C@@H](C)O)C(=O)N1CCC[C@H]1C(=O)N[C@@H](CO)C(=O)N[C@@H](CO)C(=O)N[C@H](C(=O)N[C@@H](CC(N)=O)C(=O)N[C@H](C(=O)NCC(=O)N[C@@H](Cc1c[nH]cn1)C(=O)N[C@@H](CC(N)=O)C(=O)N[C@H](C(=O)N[C@@H](Cc1ccc(O)cc1)C(N)=O)[C@@H](C)O)C(C)C)[C@@H](C)O
notes: Synthetic acylated analogue of human amylin; also called compound 17
In the case of B1, the “hCTR funct. EC50 (CRE luciferase reporter, BHK cells)” value [1] is reported as 2350 pM.

B2: N^α1-[(4S)-4-carboxy-4-(19-carboxynonadecanoylamino)butanoyl]-[Arg17,Pro21,Pro27,His34]-h-amylin (peptide)
peptide: KCNTATCATQRLANFLRHSSPNFGAIPSSTNVGHNTY
modifications: C20 diacid-gGlu on the alpha amino group of N-terminal Lys1; disulfide bridge Cys2-Cys7 and C-terminal amide as in human amylin
notes: Synthetic acylated analogue of human amylin; also called compound 40
In the case of B2, the “hCTR funct. EC50 (CRE luciferase reporter, BHK cells)” value [1] is reported as 2680 pM.

For K([γGlu-C20 diacid])CNTATCATQRLADFLRHSSPNFGAIPSSTNVGPETY-NH2 (disulfide 2-7 (inferred)), the “Ratio hCT/hAmylin funct.” value [2] was 3.9 and the “hCTR funct. EC50 (pM)” value [3] was 1120 pM.

In the case of K([γGlu-γGlu-C20 diacid])CNTATCATQRLAEFLRHSSPNFGAIPSSTNVGPETP-NH2 (disulfide 2-7 (inferred)), the “Ratio hCT/hAmylin funct.” value [2] is reported as 0.8 and the “hCTR funct. EC50 (pM)” value [3] is reported as 102 pM.
